Measurements taken from patent US20160115241A1 (Amgen, published 2016).

Tests used:
[1] = target: T1, folate receptor 1 (FOLR1) (human, UniProt P15328 25-234); test: cell-based or functional assay
[2] = target: T1, folate receptor 1 (FOLR1); test: cell-based or functional assay; remark: listed apart in the source

T1 sequence (P15328 25-234): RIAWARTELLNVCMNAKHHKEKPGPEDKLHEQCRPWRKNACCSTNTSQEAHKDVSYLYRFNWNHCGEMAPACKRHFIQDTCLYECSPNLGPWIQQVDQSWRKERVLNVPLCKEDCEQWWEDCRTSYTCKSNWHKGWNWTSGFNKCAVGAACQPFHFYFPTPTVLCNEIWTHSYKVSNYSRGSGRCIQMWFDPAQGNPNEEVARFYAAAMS

- EC50 of specific lysis, Cal-51 cells (printed Cal-61) with human T cells [1]: 1.21 pM
- EC50 of specific lysis, T47D cells with human T cells [1]: 1.26 pM
- EC50 (pM) for IFN-γ release by T cells in presence of T47D cells [2]: 27.1 pM
- EC50 (pM) for IL-2 release by T cells in presence of T47D cells [2]: 20.3 pM
- EC50 (pM) for IL-10 release by T cells in presence of T47D cells [2]: 28.3 pM
- EC50 (pM) for IL-13 release by T cells in presence of T47D cells [2]: 27.8 pM
- EC50 (pM) for TNF-α release by T cells in presence of T47D cells [2]: 12.5 pM
B1: P136795.3 (anti-FOLR1/CD3ε heterodimeric bispecific antibody) (bispecific antibody)
chain 1: EVQLVESGGGLVQPGGSLKLSCAASGFTFNSYAMNWVRQAPGKGLEWVARIRSKYNNYATYYADSVKGRFTISRDDSKNTAYLQMNNLKTEDTAVYYCVRHGNFGNSYVSWWAYWGQGTLVTVSSGGGGSGGGGSQSVLTQPPSVSEAPRQRVTISCSGSSSNIGNNAVNWYQQLPGKAPKLLIYYDDMLSSGVSDRFSGSKSGTSASLAISGLQSEDEADYYCAAWDDSLNGVVFGGGTKLTVLASTKGPSVFPLAPCSRSTSESTAALGCLVKDYFPEPVTVSWNSGALTSGVHTFPAVLQSSGLYSLSSVVTVPSSNFGTQTYTCNVDHKPSNTKVDKTVGGGGSAAAEPKSSDKTHTCPPCPAPEAAGGPSVFLFPPKPKDTLMISRTPEVTCVVVDVSHEDPEVKFNWYVDGVEVHNAKTKPREEQYNSTYRVVSVLTVLHQDWLNGKEYKCKVSNKALPAPIEKTISKAKGQPREPQVYTLPPSREEMTKNQVSLTCLVKGFYPSDIAVEWESNGQPENNYDTTPPVLDSDGSFFLYSDLTVDKSRWQQGNVFSCSVMHEALHNHYTQKSLSLSPGK
chain 2: not shown
